Measurements from patent US12644128B2, “Method for producing HSL protein having catalytic activity for 2-oxoglutaric acid-dependently oxidizing 4-HPPD inhibitor” (National Agriculture and Food Research Organization, priority 2017, dated 2026).

Assays:
Type in all cases: biochemical
[1] = 4-HPPD inhibitor decomposition activity by HPLC, substrate BBC-OH; settings: for BBC-OH decomposition activity: cell-free synthesized protein, FeCl2, ascorbic acid, 2-oxoglutarate, 30° C. for 3 hours, HPLC
Description: (§1) Then, the decomposition reaction of a 4-HPPD inhibitor was examined in the presence of divalent iron ions, 2-oxoglutarate, and molecular oxygen in a test tube by a method described later using the HIS1 protein prepared by this cell-free protein synthesis system.
(§2) Here, in commercially-available wheat germ extracts, dithiothreitol (DTT) is used as a reducing agent and a protein synthesizing reaction liquid also contains DTT. It was confirmed in advance by liquid chromatography that under the coexistence of divalent iron ions and ascorbic acid, which is a stabilizer for the divalent iron ions, DTT generated radical compounds and secondarily affected the enzyme reaction of HIS1 proteins. For this reason, in the present Example, an unreported protein synthesizing reaction system using Tris (2-carboxyethyl) phosphine (TCEP) as a reducing agent instead of DTT was newly constructed, with which the synthesis of HIS1 proteins and the like was conducted to examine the 4-HPPD inhibitor decomposition activity of these. The decomposition activity was analyzed on the reaction liquid of the protein and the 4-HPPD inhibitor using a high-performance liquid chromatography (mobile phase; 0.5% acetic acid water:acetonitrile=65:35, flow rate; 1 mL/min, feeding; isocratic, column; CAPCELL PAK ADME S5).
Then, the amounts of the synthesized proteins obtained in Examples 1 to 4 as described above were estimated as described below, followed by the analysis on the 4-HPPD inhibitor decomposition activities.
Cell-free protein synthesis was conducted without adding [^14C]-Leucine Leucine under the same conditions as those in the estimation of the synthesized amount to estimate the protein concentration of this translation reaction liquid from the above-described estimation. Then, 100 μl of the translation reaction liquid was subjected to buffer exchange to a basic translation buffer (30 mM HEPES-KOH (pH=7.8), 100 mM KOAc) by using the illustra MicroSpin G-25 column (manufactured by GE Healthcare). The amounts of the solution before and after the buffer exchange were measured and the estimated protein concentration was corrected.
An enzyme reaction liquid was prepared by mixing 250 mM of HEPES-KOH (pH 7.0) with a mixture liquid, which contained 0.25 mM of FeCl2, 1.5 mM of ascorbic acid, 1.5 mM of 2-oxoglutarate, and 0.75 mM of a substrate, and a translation reaction liquid, which contained a synthesized enzyme protein, in a proportion of 40% and 60%, respectively. After incubation at 30° C. for 3 hours, 100% methanol in the same amount as the enzyme reaction liquid was added and sufficiently mixed, followed by being left to stand for 5 minutes on ice. This was subjected to centrifuge separation (20, 400 g, 20 minutes, 4° C.) and the supernatant was passed through Cosmonice Filter W (0.45 μm) (manufactured by Nacalai Tesque, Inc.) to obtain a sample for high-performance liquid chromatography. The analysis on the substrate and the product before and after the enzyme reaction was conducted by loading a column_Pro C18 (150×4.6 mm I.D.) (manufactured by YMC Co., Ltd.) on a high-performance liquid chromatography device_ELITE LaChrom L-2000 series (manufactured by Hitachi, Ltd.). Elution was conducted at a flow speed of 1 mL/min and a column temperature of 40° C. under solvent conditions of acetonitrile:water (1% acetic acid)=55:45 or 50:50 (BBC-OH), acetonitrile:water (1% acetic acid)=45:55 (Sulcotrione), acetonitrile:water (1% acetic acid)=45:55 (Mesotrione), acetonitrile:water (1% acetic acid)=55:45 or 50:50 (tefryltrone), and acetonitrile:water (1% acetic acid)=55:45 or 50:50 (Tembotrione), respectively, and the compound was detected at an ultraviolet wavelength of 286 nm.
(§3) Note that the 5-point scale of the decomposition activity in each of FIGS. 12 to 17 is based on a relative value of the degree of decrease in a substrate-derived peak area detected by HPLC where the degree of decrease in the HIS1 protein was designated by 5. […]

[2] = 4-HPPD inhibitor decomposition activity by HPLC, substrate tefuryltrione
Description: as §1
as §2, with “S5). […]” for “S5).”
(§4) Cell-free protein synthesis was conducted without adding [^14C]-Leucine Leucine under the same conditions as those in the estimation of the synthesized amount to estimate the protein concentration of this translation reaction liquid from the above-described estimation. […] The amounts of the solution before and after the buffer exchange were measured and the estimated protein concentration was corrected. […]
as §3

[3] = 4-HPPD inhibitor decomposition activity by HPLC, substrate sulcotrione
Description: as §1
as §2, with “S5). […]” for “S5).”
as §4, §3

[4] = cell-free synthesized protein, FeCl2, ascorbic acid, 2-oxoglutarate, 30° C. for 3 hours, HPLC

B1: OsHSL2 protein: rice-derived HSL protein, typically a protein having an amino acid sequence of SEQ ID NO: 6 (protein, listed as Oryza sativa)
chain: MADEPWRLPNIVQELAAGVQEPPSRYLQDLAGGDQLAGAEIPEPIPTIDLGRLSGSDGADEAAKLRSALQNWGLFLVSNHGVETSLIDAVIEAAREFFRQPVEEKKKLSNLIDGKRFQIEGYGNDPVQTKDQILDWSDRLHLKVEPECDRNLAFWPTHPKSFRDILHEYTLKIKTVKNDILLALAKLLELDEDCLLNQFSDRAITTARFNYYSPCPRPDLVLGLKPHSDLCALTVLLTDKEVGGLQVLRDGTWYSVPAVRDYSLLINIGVTLEIMTNGTFRAPLHRVVTNAERERMSVAMFYAVDGEKEIEPVAELLGLKQQSARYRGIKGKDLLIGHYEHFSRGGRVVDSLKI
- BBC-OH decomposition activity [1]: only very weak decomposition activity

B2: ZmHSL2 protein: corn-derived HSL protein, typically a protein having an amino acid sequence of SEQ ID NO: 20 (protein)
chain: MAVESWTVPTPVKDLAALVDEPPSRFVQREEHRPGSLMLAADMPDPLPIVDLNKLSTADEAAKLRSALQTWGLFLATNHGIDASLMEDLMEASREFFHQPLQERQKYSNLREGTRFQLEGYGSDPVVAQDHILDWNDRLQLKVEPEDERSLAQWPKYPESFRDLLHEYASKTKSMRDRILRAMAKILELDEEEFIKQLGASPQAYARFNYYPPCPRPELVLGIKAHSDGPVLTVLLVDREVGGLQVQRENTWFNVPFVPHTLVINLGDSLEIMSNGIFKSPVHRVVTNAEKERISLAMLYAVERDNVLQPAAGLLDEKRPARYRRITEADFLEGVKEHFSKGIRMIETLKI
modifications: Zea mays
- BBC-OH decomposition activity [1]: had the decomposition activity, which was less effective than that of the HIS1 protein

B3: SbHSL1 protein: sorghum-derived HSL protein, typically a protein having an amino acid sequence of SEQ ID NO: 22 (protein)
chain: MAGESWKVPTPVKDLAALVEEPPSQFVQREEDRPGSLMLAADMPDPLPIVDLDKMSTADEATKLRSALQTWGLFLATNHGIDVSLMEDLMKASREFFNQPLQERQKYSNLREGTRFQLEGYGSDPVIAQDHILDWSDRLQLKVEPEDERNLAQWPKHPESFRDLLHEYATKTKTVMVKILRAMAKTLELDEEDFIDQIGGRPQAYARFNYYPPCPRPELVLGIKAHSDGPLLTVLLVDREVGGLQIQRENKWFNVPSIPHALVINLGDSLEIMSNGIFKSPVHRVVTNAEKERISLAMLYAVQRDNVLEPAPGLLDEKRPAKYRRITEAHFLEGVKEHFSKGMRMIETLKI
modifications: Sorghum bicolor
- BBC-OH decomposition activity [1]: had the decomposition activity, which was less effective than that of the HIS1 protein

B4: HIS1 protein: rice 2-oxoglutarate-dependent dioxygenase, typically a protein having an amino acid sequence of SEQ ID NO: 2 (protein, listed as Oryza sativa)
chain: MADESWRAPAIVQELAAAGVEEPPSRYLLREKDRSDVKLVAAELPEPLPVVDLSRLDGAEEATKLRVALQNWGFFLLTNHGVEASLMDSVMNLSREFFNQPIERKQKFSNLIDGKNFQIQGYGTDRVVTQDQILDWSDRLHLRVEPKEEQDLAFWPDHPESFRDVLNKYASGTKRIRDDIIQAMAKLLELDEDYFLDRLNEAPAFARFNYYPPCPRPDLVFGIRPHSDGTLLTILLVDKDVSGLQVQRDGKWSNVEATPHTLLINLGDTMEVMCNGIFRSPVHRVVTNAEKERISLAMLYSVNDEKDIEPAAGLLDENRPARYRKVSVEEFRAGIFGKFSRGERYIDSLRI
- BBC-OH decomposition activity [1]: high decomposition activity
- modification product of BBC-OH by mass analysis ([1]; mass analysis): converted into a product with one oxygen atom added
- cofactor dependence of the modification of BBC-OH ([1]; not shown): only in the presence of divalent iron ions and 2-oxoglutarate
- tefuryltrione decomposition activity [2, 4]: high decomposition activity
- modification product of tefuryltrione by mass analysis ([2]; mass analysis): converted into a product with one oxygen atom added
- sulcotrione decomposition activity [3, 4]: high decomposition activity
- modification product of sulcotrione by mass analysis ([3]; mass analysis): converted into a product with one oxygen atom added
